B1: E3 ubiquitin-protein ligase MARCHF2 (Homo sapiens), Q9P0N8 (parent)
chain: MTTGDCCHLPGSLCDCSGSPAFSKVVEATGLGPPQYVAQVTSRDGRLLSTVIRALDTPSDGPFCRICHEGANGECLLSPCGCTGTLGAVHKSCLEKWLSSSNTSYCELCHTEFAVEKRPRPLTEWLKDPGPRTEKRTLCCDMVCFLFITPLAAISGWLCLRGAQDHLRLHSQLEAVGLIALTIALFTIYVLWTLVSFRYHCQLYSEWRKTNQKVRLKIREADSPEGPQHSPLAAGLLKKVAEETPV

Variants of: B1
Conditions: with ergi3_human ERGIC3, Q9Y282
Sequence of ergi3_human ERGIC3, Q9Y282 (Q9Y282 whole entry): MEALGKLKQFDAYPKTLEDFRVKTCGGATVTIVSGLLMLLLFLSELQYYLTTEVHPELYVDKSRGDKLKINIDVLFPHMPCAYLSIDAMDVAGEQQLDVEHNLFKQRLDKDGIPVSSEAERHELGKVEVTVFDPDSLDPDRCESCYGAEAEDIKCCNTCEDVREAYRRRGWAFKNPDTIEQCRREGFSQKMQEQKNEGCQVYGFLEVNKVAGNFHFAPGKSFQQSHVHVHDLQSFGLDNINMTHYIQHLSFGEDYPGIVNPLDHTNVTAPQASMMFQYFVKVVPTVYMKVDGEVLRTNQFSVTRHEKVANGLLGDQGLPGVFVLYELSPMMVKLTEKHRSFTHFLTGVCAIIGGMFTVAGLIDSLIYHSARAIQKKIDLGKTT

effect of a mutation on the interaction | Variant
decreasing interaction strength | C64S;C67S

Variants of: B1
Conditions: with ergi3_human ERGIC3, Q9Y282
Remark: another data set of the same source

effect of a mutation on the interaction | Variant
with no effect | C64S;C67S

Variants of: B1
Conditions: with ergi3_human ERGIC3, Q9Y282
Remark: another data set of the same source

effect of a mutation on the interaction | Variant
causing an interaction | C64S;C67S
